In PMC3154637 (Structure (London, England : 1993), 2011):
Each block holds one binder with its values, some of them ahead of it.

How the values were obtained:
His-AMSHΔC-K88A = His-AMSHΔC-K88A (human, UniProt O95630 1-146, K88A); assay: pull-down
MBP-AMSH(1–206) = MBP-AMSH(1–206) (human, UniProt O95630 1-206); assay: SPR

binding result (His-AMSHΔC-K88A): binds
B1: GST-CHMP1BΔN (domain or fragment, UniProt Q7LBR1 126-199, looked up)
chain: DVQTQQMEDTMSSTTTLTTPQNQVDMLLQEMADEAGLDLNMELPQGQTGSVGTSVASAEQDELSQRLARLRDQV

Kd (MBP-AMSH(1–206)): 1490 nM
koff (MBP-AMSH(1–206)): 0.00581 s⁻¹
kon (MBP-AMSH(1–206)): 3890 M⁻¹ s⁻¹
B2: GST-CHMP1AΔN (domain or fragment, UniProt Q9HD42 123-196, looked up)
chain: DVHTSVMEDSMSSATTLTTPQEQVDSLIMQIAEENGLEVLDQLSQLPEGASAVGESSVRSQEDQLSRRLAALRN
